According to PMC9076165 (RSC Advances, 2019):
Like-named read-outs stand apart in the source and are kept apart here. Where a SMILES comes first, the peptide text is derived from it.

Key:
[1] = Solubility of the peptide in assay buffer / stock solutions; format: physicochemical; details: HK50 buffer (80 mM Hepes pH 7.6, 50 mM KCl), at concentrations equal to or higher than 10 μM
[2] = molecular target: T1, 3h34P1 heptapeptide (L) (synthetic (Ph.D.-7 phage display)); experiment: tryptophan fluorescence quenching
T1 chain: KNHDWGV

[3] = molecular target: T1, 3h34P1 heptapeptide (L); experiment: tryptophan fluorescence quenching
[4] = molecular target: T2, RsmC (rRNA small subunit methyltransferase C) (Escherichia coli (ASKA collection), UniProt P39406 1-343); experiment: FRET
T2 sequence: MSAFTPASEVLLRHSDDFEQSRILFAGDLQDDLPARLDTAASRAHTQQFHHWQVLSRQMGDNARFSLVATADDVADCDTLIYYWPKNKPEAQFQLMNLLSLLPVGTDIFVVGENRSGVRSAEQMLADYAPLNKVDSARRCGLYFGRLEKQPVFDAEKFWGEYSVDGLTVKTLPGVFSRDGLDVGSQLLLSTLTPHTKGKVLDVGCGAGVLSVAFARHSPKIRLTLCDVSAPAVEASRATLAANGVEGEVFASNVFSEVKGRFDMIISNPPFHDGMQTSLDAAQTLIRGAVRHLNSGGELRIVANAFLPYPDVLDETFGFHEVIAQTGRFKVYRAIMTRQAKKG

[5] = molecular target: T1, 3h34P1 heptapeptide (L); experiment: tryptophan fluorescence quenching
[6] = molecular target: T1, 3h34P1 heptapeptide (L); experiment: tryptophan fluorescence quenching

For `CC(C)[C@H](NC(=O)CNC(=O)[C@H](Cc1c[nH]c2ccccc12)NC(=O)[C@H](CC(=O)O)NC(=O)[C@H](Cc1c[nH]cn1)NC(=O)[C@H](CC(N)=O)NC(=O)[C@@H](N)CCCCN)C(=O)O` [P1] (H-KNHDWGV-OH), the “Solubility in the buffer used for FRET titrations” value [1] was “low solubility”.

B1: Control RNA 2 (ssRNA)
RNA: GAGGCCUUCGGGCCUC
B1: no binding [2].

B2: 3h34 (ssRNA)
RNA: CCGUCAAGUCAUCAUGGCCC
B2 gave a Kd [3] of 18 ± 5 nM.

B3: 3h34-Cy3 (ssRNA)
RNA: CCGUCAAGUCAUCAUGGCCC
B3: binds [4].

B4: Control RNA 1 (ssRNA)
RNA: GCCCUGAAAAGGGC
B4: no binding [5].

B5: 5h34 (ssRNA)
RNA: GGUGCUGCAUGGCUGUCGG
B5: binds [6].
